This is an account of results in US20210275545A1 (YEDA RESEARCH AND DEVELOPMENT, published 2021).

The chains are these.
B3: FLI1, untagged (other, UniProt Q01543 1-452, looked up)
chain: MDGTIKEALSVVSDDQSLFDSAYGAAAHLPKADMTASGSPDYGQPHKINPLPPQQEWINQPVRVNVKREYDHMNGSRESPVDCSVSKCSKLVGGGESNPMNYNSYMDEKNGPPPPNMTTNERRVIVPADPTLWTQEHVRQWLEWAIKEYSLMEIDTSFFQNMDGKELCKMNKEDFLRATTLYNTEVLLSHLSYLRESSLLAYNTTSHTDQSSRLSVKEDPSYDSVRRGAWGNNMNSGLNKSPPLGGAQTISKNTEQRPQPDPYQILGPTSSRLANPGSGQIQLWQFLLELLSDSANASCITWEGTNGEFKMTDPDEVARRWGERKSKPNMNYDKLSRALRYYYDKNIMTKVHGKRYAYKFDFHGIAQALQPHPTESSMYKYPSDISYMPSYHAHQQKVNFVPPHPSSMPVTSSSFFGAASQYWTSPTGGIYPNPNVPRHPNTHVPSHLGSYY
notes: Stands for endogenous FLI1 (HEK-293T, A673) in co-immunoprecipitation and PLA, and for FLI1 from an expression vector in the reporter assays; also called endogenous FLI1

Test [1] addresses T1, Gluc1-PU.1 (UniProt P17947-2 1-271).
T1 construct: not shown: Gaussia luciferase (Gluc), amino-terminal fragment Gluc1, amino acids 1-93
The experiment in a line: PCA in HEK-293T cells, estradiol 10 nM 60 min (FIG. 8C). The procedure: (A) HEK-293T cells (6×10³) were seeded in 96-well plates. […] (B and C) HEK-293T cells (6×10³) were seeded in 96-well plates. […] Cells were then lysed and luminescence was determined.

Test [2] addresses B3. As to the kind of experiment: co-immunoprecipitation with anti-Gluc antibody, immunoblot for endogenous FLI1, HEK-293 cells (FIG. 3D). The procedure: (§1) HEK-293T cells (6×10³) were seeded in each well of 96-well plates. […] Cells were lysed after 24 hours and processed for co-immunoprecipitation assays, in which the Gluc protein was immunoprecipitated using a specific antibody. […] Blots are representative of three or more biological replicates. […] Similarly, the input of recombinant proteins is shown in the middle panels of C and D. Both molecular weights and relative quantities of individual Gluc fusion proteins are shown by means of immunoblotting with an antibody to Gluc. Individual fusion proteins are identified by numbers and their molecular weights are calculated below each panel.
(In general: A western blot detects proteins with antibodies after separation by electrophoresis.)

Test [3] concerns the target T2, glucocorticoid receptor (GR), untagged (human, UniProt P04150 1-777).
T2 sequence (looked up): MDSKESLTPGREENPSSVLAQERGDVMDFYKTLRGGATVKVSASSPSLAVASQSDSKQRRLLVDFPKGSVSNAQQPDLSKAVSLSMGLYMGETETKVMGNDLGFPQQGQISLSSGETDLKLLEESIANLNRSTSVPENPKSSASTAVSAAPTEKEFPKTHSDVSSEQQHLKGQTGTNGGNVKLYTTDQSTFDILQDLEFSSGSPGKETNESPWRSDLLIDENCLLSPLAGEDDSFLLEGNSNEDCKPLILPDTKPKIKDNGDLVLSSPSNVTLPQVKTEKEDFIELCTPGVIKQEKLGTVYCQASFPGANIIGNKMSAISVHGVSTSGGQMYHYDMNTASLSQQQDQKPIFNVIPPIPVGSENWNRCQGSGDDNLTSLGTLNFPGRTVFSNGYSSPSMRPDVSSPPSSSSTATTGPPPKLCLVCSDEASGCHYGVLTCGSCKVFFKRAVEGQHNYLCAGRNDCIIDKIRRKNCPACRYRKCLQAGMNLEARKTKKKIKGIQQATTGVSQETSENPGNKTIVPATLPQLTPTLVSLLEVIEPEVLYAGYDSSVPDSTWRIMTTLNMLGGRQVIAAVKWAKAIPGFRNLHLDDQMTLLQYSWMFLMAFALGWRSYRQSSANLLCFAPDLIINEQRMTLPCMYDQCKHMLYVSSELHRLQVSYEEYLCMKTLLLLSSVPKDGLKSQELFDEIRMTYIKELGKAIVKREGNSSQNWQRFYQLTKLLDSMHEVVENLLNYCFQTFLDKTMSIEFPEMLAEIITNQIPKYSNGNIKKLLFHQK
The experiment in a line: cell-based or functional assay.

For test [4], the target named is T3, GR NTD+DBD-Gluc2 (NTD and DBD of GR fused to Gluc2) (human, UniProt P04150 1-486).
T3 construct: domain: NTD+DBD;range 94-169; not shown: Gaussia luciferase (Gluc), carboxyl-terminal fragment Gluc2, amino acids 94-169
T3 sequence (looked up): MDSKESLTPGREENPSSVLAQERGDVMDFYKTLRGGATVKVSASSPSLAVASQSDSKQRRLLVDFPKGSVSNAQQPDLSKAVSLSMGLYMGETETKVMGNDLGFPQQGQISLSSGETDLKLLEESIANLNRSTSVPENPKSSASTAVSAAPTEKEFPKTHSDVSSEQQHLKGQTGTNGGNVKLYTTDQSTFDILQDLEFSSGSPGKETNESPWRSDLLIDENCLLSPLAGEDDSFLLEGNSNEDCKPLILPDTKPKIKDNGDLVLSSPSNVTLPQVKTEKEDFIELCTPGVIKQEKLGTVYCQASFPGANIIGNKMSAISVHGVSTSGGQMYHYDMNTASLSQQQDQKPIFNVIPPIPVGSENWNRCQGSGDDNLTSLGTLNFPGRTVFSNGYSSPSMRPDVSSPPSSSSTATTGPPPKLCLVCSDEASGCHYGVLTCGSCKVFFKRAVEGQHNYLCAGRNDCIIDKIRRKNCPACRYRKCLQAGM
As to the kind of experiment: co-immunoprecipitation with anti-Gluc antibody, immunoblot for endogenous FLI1, HEK-293 cells (FIG. 3D). The method, then: as §1

Test [5] deals with T1, Gluc1-PU.1. The experiment in a line: PCA (split Gaussia luciferase) in HEK-293 cells, DEX 1.0 µM 60 min (FIG. 1B). The text has this: EB, empty beads; C, solvent control. Images shown are representative of three biological replicates.
The resulting luminescence was normalized to the signal associated with cells treated with vehicle only.

B1: ERα-Gluc2 (estrogen receptor alpha fused to Gluc2) (receptor, UniProt P03372 1-595, looked up)
chain: MTMTLHTKASGMALLHQIQGNELEPLNRPQLKIPLERPLGEVYLDSSKPAVYNYPEGAAYEFNAAAAANAQVYGQTGLPYGPGSEAAAFGSNGLGGFPPLNSVSPSPLMLLHPPPQLSPFLQPHGQQVPYYLENEPSGYTVREAGPPAFYRPNSDNRRQGGRERLASTNDKGSMAMESAKETRYCAVCNDYASGYHYGVWSCEGCKAFFKRSIQGHNDYMCPATNQCTIDKNRRKSCQACRLRKCYEVGMMKGGIRKDRRGGRMLKHKRQRDDGEGRGEVGSAGDMRAANLWPSPLMIKRSKKNSLALSLTADQMVSALLDAEPPILYSEYDPTRPFSEASMMGLLTNLADRELVHMINWAKRVPGFVDLTLHDQVHLLECAWLEILMIGLVWRSMEHPGKLLFAPNLLLDRNQGKCVEGMVEIFDMLLATSSRFRMMNLQGEEFVCLKSIILLNSGVYTFLSSTLKSLEEKDHIHRVLDKITDTLIHLMAKAGLTLQQQHQRLAQLLLILSHIRHMSNKGMEHLYSMKCKNVVPLYDLLLEMLDAHRLHAPTSRGGASVEETDQSHLATAGSTSSHSLQKYYITGEAEGFPATV
notes: not shown: Gaussia luciferase (Gluc), carboxyl-terminal fragment Gluc2, amino acids 94-169
As for B1, the binding result in test [1] is reported as “no binding”.

B2: GR NTD-Gluc2 (NTD of GR fused to Gluc2) (other, UniProt P04150 1-420, looked up, not shown: large carriers)
chain: MDSKESLTPGREENPSSVLAQERGDVMDFYKTLRGGATVKVSASSPSLAVASQSDSKQRRLLVDFPKGSVSNAQQPDLSKAVSLSMGLYMGETETKVMGNDLGFPQQGQISLSSGETDLKLLEESIANLNRSTSVPENPKSSASTAVSAAPTEKEFPKTHSDVSSEQQHLKGQTGTNGGNVKLYTTDQSTFDILQDLEFSSGSPGKETNESPWRSDLLIDENCLLSPLAGEDDSFLLEGNSNEDCKPLILPDTKPKIKDNGDLVLSSPSNVTLPQVKTEKEDFIELCTPGVIKQEKLGTVYCQASFPGANIIGNKMSAISVHGVSTSGGQMYHYDMNTASLSQQQDQKPIFNVIPPIPVGSENWNRCQGSGDDNLTSLGTLNFPGRTVFSNGYSSPSMRPDVSSPPSSSSTATTGPPPKL
notes: domain: NTD;range 94-169
With B2, the binding result in test [2] was “no binding”.
Turning to B3, in test [3], the “GRE activity, luciferase reporter (FIG. 4D)” value was 17 fold and the “GRE activity, luciferase reporter, endogenous GR with DEX (FIG. 4E)” value is roughly 2 fold. For the same molecule, the binding result in test [4] was “no binding”.

B4: GR-Gluc2 (full-length glucocorticoid receptor fused at its carboxyl terminus to Gluc2) (receptor, UniProt P04150 1-777, looked up)
chain: MDSKESLTPGREENPSSVLAQERGDVMDFYKTLRGGATVKVSASSPSLAVASQSDSKQRRLLVDFPKGSVSNAQQPDLSKAVSLSMGLYMGETETKVMGNDLGFPQQGQISLSSGETDLKLLEESIANLNRSTSVPENPKSSASTAVSAAPTEKEFPKTHSDVSSEQQHLKGQTGTNGGNVKLYTTDQSTFDILQDLEFSSGSPGKETNESPWRSDLLIDENCLLSPLAGEDDSFLLEGNSNEDCKPLILPDTKPKIKDNGDLVLSSPSNVTLPQVKTEKEDFIELCTPGVIKQEKLGTVYCQASFPGANIIGNKMSAISVHGVSTSGGQMYHYDMNTASLSQQQDQKPIFNVIPPIPVGSENWNRCQGSGDDNLTSLGTLNFPGRTVFSNGYSSPSMRPDVSSPPSSSSTATTGPPPKLCLVCSDEASGCHYGVLTCGSCKVFFKRAVEGQHNYLCAGRNDCIIDKIRRKNCPACRYRKCLQAGMNLEARKTKKKIKGIQQATTGVSQETSENPGNKTIVPATLPQLTPTLVSLLEVIEPEVLYAGYDSSVPDSTWRIMTTLNMLGGRQVIAAVKWAKAIPGFRNLHLDDQMTLLQYSWMFLMAFALGWRSYRQSSANLLCFAPDLIINEQRMTLPCMYDQCKHMLYVSSELHRLQVSYEEYLCMKTLLLLSSVPKDGLKSQELFDEIRMTYIKELGKAIVKREGNSSQNWQRFYQLTKLLDSMHEVVENLLNYCFQTFLDKTMSIEFPEMLAEIITNQIPKYSNGNIKKLLFHQK
notes: domain: full length;range 94-169; Expressed in HEK-293/HEK-293T cells by transfection; also called Gluc2-GR; not shown: Gaussia luciferase (Gluc), carboxyl-terminal fragment Gluc2, amino acids 94-169
With B4, in test [5], the binding result is “binds”.
